The source of these data is article PMC11329236.

The target in the assay is KIR3DL1-Fc (UniProt P43629). Briefly: SPR; Biacore T200; KIR3DL1-Fc coupled to a series S Protein A chip at ~1000 RU; soluble monomers injected at 0-193 uM (wild type) or 0-234 uM (V97S); contact 300 s, dissociation 700 s; 25 C; HBS-EP+ buffer; 1:1 binding model. In general terms: SPR reads the build-up and loss of mass on a sensor chip optically.
Sequence of UniProt P43629 (P43629 22-320): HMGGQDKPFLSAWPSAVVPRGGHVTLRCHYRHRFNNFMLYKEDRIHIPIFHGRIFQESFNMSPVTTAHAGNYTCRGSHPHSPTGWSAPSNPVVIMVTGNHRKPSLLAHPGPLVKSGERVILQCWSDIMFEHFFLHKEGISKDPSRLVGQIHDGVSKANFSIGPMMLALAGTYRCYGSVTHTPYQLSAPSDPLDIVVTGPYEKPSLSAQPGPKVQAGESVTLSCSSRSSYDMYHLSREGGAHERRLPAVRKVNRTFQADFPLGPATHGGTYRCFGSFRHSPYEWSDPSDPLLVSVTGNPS

As for “soluble HLA-B*5701 V97S mutant monomer in complex with the TW10 peptide (from UniProt P61769 21-119) (peptide-MHC)”, the Kd (as a rule, the equilibrium constant for the complex coming apart) stood at 185 µM.
